B1: TSC2 I820del variant (natural protein)
chain: not shown
B2: wild-type TSC2 (natural protein)
chain: not shown

Target: T1, TSC1 (human, UniProt Q92574 1-1164)
T1 sequence (looked up): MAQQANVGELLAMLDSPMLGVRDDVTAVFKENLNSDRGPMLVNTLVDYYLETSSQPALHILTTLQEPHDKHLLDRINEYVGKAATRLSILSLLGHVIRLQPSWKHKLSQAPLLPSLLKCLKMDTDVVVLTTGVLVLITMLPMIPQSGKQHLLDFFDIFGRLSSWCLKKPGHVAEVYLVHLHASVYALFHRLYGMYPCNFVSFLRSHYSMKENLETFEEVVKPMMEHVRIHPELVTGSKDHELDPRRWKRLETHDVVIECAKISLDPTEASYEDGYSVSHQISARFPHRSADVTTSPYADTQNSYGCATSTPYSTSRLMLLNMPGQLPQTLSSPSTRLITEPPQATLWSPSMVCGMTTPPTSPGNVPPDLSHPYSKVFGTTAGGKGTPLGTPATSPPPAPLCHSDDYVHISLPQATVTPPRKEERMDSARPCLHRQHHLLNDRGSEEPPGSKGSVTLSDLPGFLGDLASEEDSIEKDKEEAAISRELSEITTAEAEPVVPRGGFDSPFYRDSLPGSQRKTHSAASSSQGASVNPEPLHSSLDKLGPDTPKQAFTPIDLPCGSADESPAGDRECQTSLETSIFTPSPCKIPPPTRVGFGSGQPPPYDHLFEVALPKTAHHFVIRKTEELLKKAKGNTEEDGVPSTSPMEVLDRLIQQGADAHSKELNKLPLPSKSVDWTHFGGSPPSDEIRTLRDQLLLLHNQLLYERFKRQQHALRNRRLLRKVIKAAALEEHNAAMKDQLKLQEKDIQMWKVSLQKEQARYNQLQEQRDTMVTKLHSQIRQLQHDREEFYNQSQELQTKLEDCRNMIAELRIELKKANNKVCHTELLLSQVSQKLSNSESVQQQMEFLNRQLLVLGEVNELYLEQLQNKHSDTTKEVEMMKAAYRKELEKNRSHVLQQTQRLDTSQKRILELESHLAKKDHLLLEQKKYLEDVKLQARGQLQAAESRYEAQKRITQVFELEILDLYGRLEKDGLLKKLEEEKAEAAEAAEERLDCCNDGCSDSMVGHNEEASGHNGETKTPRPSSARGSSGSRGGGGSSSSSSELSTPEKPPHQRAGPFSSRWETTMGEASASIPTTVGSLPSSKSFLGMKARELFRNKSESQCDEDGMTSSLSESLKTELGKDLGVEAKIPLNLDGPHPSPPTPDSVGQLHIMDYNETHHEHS
Assay: cell-based or functional assay

Binder	in vitro rheb GAP activity of the immunoprecipitated TSC1–TSC2 variant complex: rheb-bound GDP/GTP ratio after 90 minutes	in vitro rheb GAP activity of the immunoprecipitated TSC1–TSC2 complex: rheb-bound GDP/GTP ratio after 90 minutes
B1	0.9	
B2		1.4
